Results as given in patent US20150299281A1 (ZEALAND PHARMA A S, published 2015).
Square brackets hold non-standard residues; d marks the D form. Aib = CC(C)(N)C(=O)O

T1: human GIP receptor (human, UniProt P48546 22-466)
T1 sequence (looked up): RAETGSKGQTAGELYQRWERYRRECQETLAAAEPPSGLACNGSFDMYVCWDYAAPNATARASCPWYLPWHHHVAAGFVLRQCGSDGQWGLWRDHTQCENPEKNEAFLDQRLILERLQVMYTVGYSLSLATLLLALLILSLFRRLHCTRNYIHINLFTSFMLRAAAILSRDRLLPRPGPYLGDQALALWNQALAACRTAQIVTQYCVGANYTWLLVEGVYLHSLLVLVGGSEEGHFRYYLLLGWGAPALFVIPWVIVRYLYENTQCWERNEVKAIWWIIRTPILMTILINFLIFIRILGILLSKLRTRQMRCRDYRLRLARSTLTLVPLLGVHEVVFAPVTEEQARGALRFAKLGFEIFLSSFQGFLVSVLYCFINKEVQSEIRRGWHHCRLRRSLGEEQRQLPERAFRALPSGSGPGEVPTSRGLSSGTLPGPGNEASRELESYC

B1: Compound 16 (peptide)
peptide: H-Y[Aib]EGTFTSDYSIYLDSKAQRAFVNWLLA[Aib]K-NH2
SMILES: CC[C@H](C)[C@H](NC(=O)[C@H](CO)NC(=O)[C@H](Cc1ccc(O)cc1)NC(=O)[C@H](CC(=O)O)NC(=O)[C@H](CO)NC(=O)[C@@H](NC(=O)[C@H](Cc1ccccc1)NC(=O)[C@@H](NC(=O)CNC(=O)[C@H](CCC(=O)O)NC(=O)C(C)(C)NC(=O)[C@@H](N)Cc1ccc(O)cc1)[C@@H](C)O)[C@@H](C)O)C(=O)N[C@@H](Cc1ccc(O)cc1)C(=O)N[C@@H](CC(C)C)C(=O)N[C@@H](CC(=O)O)C(=O)N[C@@H](CO)C(=O)N[C@@H](CCCCN)C(=O)N[C@@H](C)C(=O)N[C@@H](CCC(N)=O)C(=O)N[C@@H](CCCNC(=N)N)C(=O)N[C@@H](C)C(=O)N[C@@H](Cc1ccccc1)C(=O)N[C@H](C(=O)N[C@@H](CC(N)=O)C(=O)N[C@@H](Cc1c[nH]c2ccccc12)C(=O)N[C@@H](CC(C)C)C(=O)N[C@@H](CC(C)C)C(=O)N[C@@H](C)C(=O)NC(C)(C)C(=O)N[C@@H](CCCCN)C(N)=O)C(C)C
B2: Compound 2 (peptide)
peptide: H-Y[Aib]EGTFTSDYSI[Aib]LDKKAQRAFVEWLLAQGPSSGAPPPS-NH2
SMILES: CC[C@H](C)[C@H](NC(=O)[C@H](CO)NC(=O)[C@H](Cc1ccc(O)cc1)NC(=O)[C@H](CC(=O)O)NC(=O)[C@H](CO)NC(=O)[C@@H](NC(=O)[C@H](Cc1ccccc1)NC(=O)[C@@H](NC(=O)CNC(=O)[C@H](CCC(=O)O)NC(=O)C(C)(C)NC(=O)[C@@H](N)Cc1ccc(O)cc1)[C@@H](C)O)[C@@H](C)O)C(=O)NC(C)(C)C(=O)N[C@@H](CC(C)C)C(=O)N[C@@H](CC(=O)O)C(=O)N[C@@H](CCCCN)C(=O)N[C@@H](CCCCN)C(=O)N[C@@H](C)C(=O)N[C@@H](CCC(N)=O)C(=O)N[C@@H](CCCNC(=N)N)C(=O)N[C@@H](C)C(=O)N[C@@H](Cc1ccccc1)C(=O)N[C@H](C(=O)N[C@@H](CCC(=O)O)C(=O)N[C@@H](Cc1c[nH]c2ccccc12)C(=O)N[C@@H](CC(C)C)C(=O)N[C@@H](CC(C)C)C(=O)N[C@@H](C)C(=O)N[C@@H](CCC(N)=O)C(=O)NCC(=O)N1CCC[C@H]1C(=O)N[C@@H](CO)C(=O)N[C@@H](CO)C(=O)NCC(=O)N[C@@H](C)C(=O)N1CCC[C@H]1C(=O)N1CCC[C@H]1C(=O)N1CCC[C@H]1C(=O)N[C@@H](CO)C(N)=O)C(C)C
B3: Compound 17 (peptide)
peptide: H-Y[Aib]EGTFTSDYSIYLDEKAQRAFVNWLLA[Aib]K-NH2
SMILES: CC[C@H](C)[C@H](NC(=O)[C@H](CO)NC(=O)[C@H](Cc1ccc(O)cc1)NC(=O)[C@H](CC(=O)O)NC(=O)[C@H](CO)NC(=O)[C@@H](NC(=O)[C@H](Cc1ccccc1)NC(=O)[C@@H](NC(=O)CNC(=O)[C@H](CCC(=O)O)NC(=O)C(C)(C)NC(=O)[C@@H](N)Cc1ccc(O)cc1)[C@@H](C)O)[C@@H](C)O)C(=O)N[C@@H](Cc1ccc(O)cc1)C(=O)N[C@@H](CC(C)C)C(=O)N[C@@H](CC(=O)O)C(=O)N[C@@H](CCC(=O)O)C(=O)N[C@@H](CCCCN)C(=O)N[C@@H](C)C(=O)N[C@@H](CCC(N)=O)C(=O)N[C@@H](CCCNC(=N)N)C(=O)N[C@@H](C)C(=O)N[C@@H](Cc1ccccc1)C(=O)N[C@H](C(=O)N[C@@H](CC(N)=O)C(=O)N[C@@H](Cc1c[nH]c2ccccc12)C(=O)N[C@@H](CC(C)C)C(=O)N[C@@H](CC(C)C)C(=O)N[C@@H](C)C(=O)NC(C)(C)C(=O)N[C@@H](CCCCN)C(N)=O)C(C)C
B4: Compound 18 (peptide)
peptide: H-Y[Aib]EGTFTSDYSIYLDSKAKRAFVNWLLA[Aib]K-NH2
SMILES: CC[C@H](C)[C@H](NC(=O)[C@H](CO)NC(=O)[C@H](Cc1ccc(O)cc1)NC(=O)[C@H](CC(=O)O)NC(=O)[C@H](CO)NC(=O)[C@@H](NC(=O)[C@H](Cc1ccccc1)NC(=O)[C@@H](NC(=O)CNC(=O)[C@H](CCC(=O)O)NC(=O)C(C)(C)NC(=O)[C@@H](N)Cc1ccc(O)cc1)[C@@H](C)O)[C@@H](C)O)C(=O)N[C@@H](Cc1ccc(O)cc1)C(=O)N[C@@H](CC(C)C)C(=O)N[C@@H](CC(=O)O)C(=O)N[C@@H](CO)C(=O)N[C@@H](CCCCN)C(=O)N[C@@H](C)C(=O)N[C@@H](CCCCN)C(=O)N[C@@H](CCCNC(=N)N)C(=O)N[C@@H](C)C(=O)N[C@@H](Cc1ccccc1)C(=O)N[C@H](C(=O)N[C@@H](CC(N)=O)C(=O)N[C@@H](Cc1c[nH]c2ccccc12)C(=O)N[C@@H](CC(C)C)C(=O)N[C@@H](CC(C)C)C(=O)N[C@@H](C)C(=O)NC(C)(C)C(=O)N[C@@H](CCCCN)C(N)=O)C(C)C
B5: Compound 19 (peptide)
peptide: H-Y[Aib]EGTFTSDYSIYLDKKAQKEFVNWLLA[Aib]K-NH2
SMILES: CC[C@H](C)[C@H](NC(=O)[C@H](CO)NC(=O)[C@H](Cc1ccc(O)cc1)NC(=O)[C@H](CC(=O)O)NC(=O)[C@H](CO)NC(=O)[C@@H](NC(=O)[C@H](Cc1ccccc1)NC(=O)[C@@H](NC(=O)CNC(=O)[C@H](CCC(=O)O)NC(=O)C(C)(C)NC(=O)[C@@H](N)Cc1ccc(O)cc1)[C@@H](C)O)[C@@H](C)O)C(=O)N[C@@H](Cc1ccc(O)cc1)C(=O)N[C@@H](CC(C)C)C(=O)N[C@@H](CC(=O)O)C(=O)N[C@@H](CCCCN)C(=O)N[C@@H](CCCCN)C(=O)N[C@@H](C)C(=O)N[C@@H](CCC(N)=O)C(=O)N[C@@H](CCCCN)C(=O)N[C@@H](CCC(=O)O)C(=O)N[C@@H](Cc1ccccc1)C(=O)N[C@H](C(=O)N[C@@H](CC(N)=O)C(=O)N[C@@H](Cc1c[nH]c2ccccc12)C(=O)N[C@@H](CC(C)C)C(=O)N[C@@H](CC(C)C)C(=O)N[C@@H](C)C(=O)NC(C)(C)C(=O)N[C@@H](CCCCN)C(N)=O)C(C)C
B6: Compound 20 (peptide)
peptide: H-Y[Aib]EGTFTSDYSIYLDKKAQRAFVKWLLA[Aib]K-NH2
SMILES: CC[C@H](C)[C@H](NC(=O)[C@H](CO)NC(=O)[C@H](Cc1ccc(O)cc1)NC(=O)[C@H](CC(=O)O)NC(=O)[C@H](CO)NC(=O)[C@@H](NC(=O)[C@H](Cc1ccccc1)NC(=O)[C@@H](NC(=O)CNC(=O)[C@H](CCC(=O)O)NC(=O)C(C)(C)NC(=O)[C@@H](N)Cc1ccc(O)cc1)[C@@H](C)O)[C@@H](C)O)C(=O)N[C@@H](Cc1ccc(O)cc1)C(=O)N[C@@H](CC(C)C)C(=O)N[C@@H](CC(=O)O)C(=O)N[C@@H](CCCCN)C(=O)N[C@@H](CCCCN)C(=O)N[C@@H](C)C(=O)N[C@@H](CCC(N)=O)C(=O)N[C@@H](CCCNC(=N)N)C(=O)N[C@@H](C)C(=O)N[C@@H](Cc1ccccc1)C(=O)N[C@H](C(=O)N[C@@H](CCCCN)C(=O)N[C@@H](Cc1c[nH]c2ccccc12)C(=O)N[C@@H](CC(C)C)C(=O)N[C@@H](CC(C)C)C(=O)N[C@@H](C)C(=O)NC(C)(C)C(=O)N[C@@H](CCCCN)C(N)=O)C(C)C
B7: Compound 21 (peptide)
peptide: H-Y[Aib]EGTFTSDYSIYLDKKAQRAFVNWLVA[Aib]K-NH2
SMILES: CC[C@H](C)[C@H](NC(=O)[C@H](CO)NC(=O)[C@H](Cc1ccc(O)cc1)NC(=O)[C@H](CC(=O)O)NC(=O)[C@H](CO)NC(=O)[C@@H](NC(=O)[C@H](Cc1ccccc1)NC(=O)[C@@H](NC(=O)CNC(=O)[C@H](CCC(=O)O)NC(=O)C(C)(C)NC(=O)[C@@H](N)Cc1ccc(O)cc1)[C@@H](C)O)[C@@H](C)O)C(=O)N[C@@H](Cc1ccc(O)cc1)C(=O)N[C@@H](CC(C)C)C(=O)N[C@@H](CC(=O)O)C(=O)N[C@@H](CCCCN)C(=O)N[C@@H](CCCCN)C(=O)N[C@@H](C)C(=O)N[C@@H](CCC(N)=O)C(=O)N[C@@H](CCCNC(=N)N)C(=O)N[C@@H](C)C(=O)N[C@@H](Cc1ccccc1)C(=O)N[C@H](C(=O)N[C@@H](CC(N)=O)C(=O)N[C@@H](Cc1c[nH]c2ccccc12)C(=O)N[C@@H](CC(C)C)C(=O)N[C@H](C(=O)N[C@@H](C)C(=O)NC(C)(C)C(=O)N[C@@H](CCCCN)C(N)=O)C(C)C)C(C)C
B8: Compound 23 (peptide)
peptide: H-Y[Aib]EGTFTSDYSIYLDKKAQRAFVNWLKA[Aib]K-NH2
SMILES: CC[C@H](C)[C@H](NC(=O)[C@H](CO)NC(=O)[C@H](Cc1ccc(O)cc1)NC(=O)[C@H](CC(=O)O)NC(=O)[C@H](CO)NC(=O)[C@@H](NC(=O)[C@H](Cc1ccccc1)NC(=O)[C@@H](NC(=O)CNC(=O)[C@H](CCC(=O)O)NC(=O)C(C)(C)NC(=O)[C@@H](N)Cc1ccc(O)cc1)[C@@H](C)O)[C@@H](C)O)C(=O)N[C@@H](Cc1ccc(O)cc1)C(=O)N[C@@H](CC(C)C)C(=O)N[C@@H](CC(=O)O)C(=O)N[C@@H](CCCCN)C(=O)N[C@@H](CCCCN)C(=O)N[C@@H](C)C(=O)N[C@@H](CCC(N)=O)C(=O)N[C@@H](CCCNC(=N)N)C(=O)N[C@@H](C)C(=O)N[C@@H](Cc1ccccc1)C(=O)N[C@H](C(=O)N[C@@H](CC(N)=O)C(=O)N[C@@H](Cc1c[nH]c2ccccc12)C(=O)N[C@@H](CC(C)C)C(=O)N[C@@H](CCCCN)C(=O)N[C@@H](C)C(=O)NC(C)(C)C(=O)N[C@@H](CCCCN)C(N)=O)C(C)C

What follows are binders tested against T1, human GIP receptor (assay: cell-based or functional assay).

Binder | EC50, cAMP induction in HEK293 cells expressing human GIP R [nM]
B1 | 0.053
B2 | 0.0068
B3 | 0.021
B4 | 0.36
B5 | 0.015
B6 | 0.049
B7 | 0.08
B8 | 0.42

These binders were tested against human GLP-1 receptor (human, UniProt P43220 24-463) (assay: cell-based or functional assay).

Binder | EC50, cAMP induction in HEK293 cells expressing human GLP-1 R [nM]
B1 | 0.012
B2 | 0.015
B3 | 0.0074
B4 | 0.015
B5 | 0.0073
B6 | 0.009
B7 | 0.009
B8 | 0.012
